Test system: human HL60 cells
Test: SWATH-MS proteomics, differential protein representation, akirin2 KO vs WT HL60 cells
Type: cell-based
Conditions: SWATH-MS, akirin2 KO vs WT HL60 cells; over-represented in KO
Procedure, shortened: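 Read-out is label-free SWATH-MS protein area, globally normalized to total detected-protein area, with identifications held at 1% FDR against a library from information-dependent acquisition.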

Molecule	Fold Change	Log (Fold Change)
sp¦O95816¦BAG2_HUMAN (protein, UniProt O95816 2-211, looked up) BAG family molecular …: AQAKINAKANEGRFCRSSSMADRSSRLLESLDQLELRVEALREAATAVEQEKEILLEMIHSIQNSQDMRQISDGEREELNLTANRLMGRTLTVEVSVETIRNPQQQESLKHATRIIDEVVNKFLDDLGNAKSHLMSLYSACSSEVPHGPVDQKFQSIVIGCALEDQKKIKRRLETLLRNIENSDKAIKLLEHSKGAGSKTLQQNAESRFN	1.58	0.1985
sp¦Q9Y2Z0¦SGT1_HUMAN (protein, UniProt Q9Y2Z0 2-365, looked up) Protein SGT1 homolog: AAAAAGTATSQRFFQSFSDALIDEDPQAALEELTKALEQKPDDAQYYCQRAYCHILLGNYCVAVADAKKSLELNPNNSTAMLRKGICEYHEKNYAAALETFTEGQKLDIETGFHRVGQAGLQLLTSSDPPALDSQSAGITGADANFSVWIKRCQEAQNGSESEVWTHQSKIKYDWYQTESQVVITLMIKNVQKNDVNVEFSEKELSALVKLPSGEDYNLKLELLHPIIPEQSTFKVLSTKIEIKLKKPEAVRWEKLEGQGDVPTPKQFVADVKNLYPSSSPYTRNWDKLVGEIKEEEKNEKLEGDAALNRLFQQIYSDGSDEVKRAMNKSFMESGGTVLSTNWSDVGKRKVEINPPDDMEWKKY	1.579	0.1983
sp¦P13693¦TCTP_HUMAN (protein, UniProt P13693 1-172, looked up) Translationally-controlled …: MIIYRDLISHDEMFSDIYKIREIADGLCLEVEGKMVSRTEGNIDDSLIGGNASAEGPEGEGTESTVITGVDIVMNHHLQETSFTKEAYKKYIKDYMKSIKGKLEEQRPERVKPFMTGAAEQIKHILANFKNYQFFIGENMNPDGMVALLDYREDGVTPYMIFFKDGLEMEKC	1.634	0.2132
sp¦Q15370¦ELOB_HUMAN (protein, UniProt Q15370 1-118, looked up) Elongin-B: MDVFLMIRRHKTTIFTDAKESSTVFELKRIVEGILKRPPDEQRLYKDDQLLDDGKTLGECGFTSQTARPQAPATVGLAFRADDTFEALCIEPFSSPPELPDVMKPQDSGSSANEQAVQ	1.578	0.1982
sp¦Q9NPF4¦OSGEP_HUMAN (protein, UniProt Q9NPF4 1-335, looked up) tRNA N6-adenosine …: MPAVLGFEGSANKIGVGVVRDGKVLANPRRTYVTPPGTGFLPGDTARHHRAVILDLLQEALTESGLTSQDIDCIAYTKGPGMGAPLVSVAVVARTVAQLWNKPLVGVNHCIGHIEMGRLITGATSPTVLYVSGGNTQVIAYSEHRYRIFGETIDIAVGNCLDRFARVLKISNDPSPGYNIEQMAKRGKKLVELPYTVKGMDVSFSGILSFIEDVAHRMLATGECTPEDLCFSLQETVFAMLVEITERAMAHCGSQEALIVGGVGCNVRLQEMMATMCQERGARLFATDERFCIDNGAMIAQAGWEMFRAGHRTPLSDSGVTQRYRTDEVEVTWRD	1.5342	0.1859
sp¦O75534¦CSDE1_HUMAN (protein, UniProt O75534 1-798, looked up) Cold shock domain-containing …: MSFDPNLLHNNGHNGYPNGTSAALRETGVIEKLLTSYGFIQCSERQARLFFHCSQYNGNLQDLKVGDDVEFEVSSDRRTGKPIAVKLVKIKQEILPEERMNGQVVCAVPHNLESKSPAAPGQSPTGSVCYERNGEVFYLTYTPEDVEGNVQLETGDKINFVIDNNKHTGAVSARNIMLLKKKQARCQGVVCAMKEAFGFIERGDVVKEIFFHYSEFKGDLETLQPGDDVEFTIKDRNGKEVATDVRLLPQGTVIFEDISIEHFEGTVTKVIPKVPSKNQNDPLPGRIKVDFVIPKELPFGDKDTKSKVTLLEGDHVRFNISTDRRDKLERATNIEVLSNTFQFTNEAREMGVIAAMRDGFGFIKCVDRDVRMFFHFSEILDGNQLHIADEVEFTVVPDMLSAQRNHAIRIKKLPKGTVSFHSHSDHRFLGTVEKEATFSNPKTTSPNKGKEKEAEDGIIAYDDCGVKLTIAFQAKDVEGSTSPQIGDKVEFSISDKQRPGQQVATCVRLLGRNSNSKRLLGYVATLKDNFGFIETANHDKEIFFHYSEFSGDVDSLELGDMVEYSLSKGKGNKVSAEKVNKTHSVNGITEEADPTIYSGKVIRPLRSVDPTQTEYQGMIEIVEEGDMKGEVYPFGIVGMANKGDCLQKGESVKFQLCVLGQNAQTMAYNITPLRRATVECVKDQFGFINYEVGDSKKLFFHVKEVQDGIELQAGDEVEFSVILNQRTGKCSACNVWRVCEGPKAVAAPRPDRLVNRLKNITLDDASAPRLMVLRQPRGPDNSMGFGAERKIRQAGVID	1.544	0.1886
Gc-globulin (protein, UniProt P02774 17-474, looked up) Vitamin D-binding protein: LERGRDYEKNKVCKEFSHLGKEDFTSLSLVLYSRKFPSGTFEQVSQLVKEVVSLTEACCAEGADPDCYDTRTSALSAKSCESNSPFPVHPGTAECCTKEGLERKLCMAALKHQPQEFPTYVEPTNDEICEAFRKDPKEYANQFMWEYSTNYGQAPLSLLVSYTKSYLSMVGSCCTSASPTVCFLKERLQLKHLSLLTTLSNRVCSQYAAYGEKKSRLSNLIKLAQKVPTADLEDVLPLAEDITNILSKCCESASEDCMAKELPEHTVKLCDNLSTKNSKFEDCCQEKTAMDVFVCTYFMPAAQLPELPDVELPTNKDVCDPGNTKVMDKYTFELSRRTHLPEVFLSKVLEPTLKSLGECCDVEDSTTCFNAKGPLLKKELSSFIDKGQELCADYSENTFTEYKKKLAERLKAKLPDATPTELAKLVNKHSDFASNCCSINSPPLYCDSEIDAELKNIL	5.464	0.7375
sp¦P04080¦CYTB_HUMAN (protein, UniProt P04080 1-98, looked up) Cystatin-B: MMCGAPSATQPATAETQHIADQVRSQLEEKENKKFPVFKAVSFKSQVVAGTNYFIKVHVGDEDFVHLRVFQSLPHENKPLTLSNYQTNKAKHDELTYF	1.628	0.2117
sp¦P08246¦ELNE_HUMAN (protein, UniProt P08246 30-267, looked up) Neutrophil elastase: IVGGRRARPHAWPFMVSLQLRGGHFCGATLIAPNFVMSAAHCVANVNVRAVRVVLGAHNLSRREPTRQVFAVQRIFENGYDPVNLLNDIVILQLNGSATINANVQVAQLPAQGRRLGNGVQCLAMGWGLLGRNRGIASVLQELNVTVVTSLCRRSNVCTLVRGRQAGVCFGDSGSPLVCNGLIHGIASFVRGGCASGLYPDAFAPVAQFVNWIDSIIQRSEDNPCPHPRDPDPASRTH	1.634	0.2132
sp¦P24534¦EF1B_HUMAN (protein, UniProt P24534 2-225, looked up) Elongation factor 1-beta: GFGDLKSPAGLQVLNDYLADKSYIEGYVPSQADVAVFEAVSSPPPADLCHALRWYNHIKSYEKEKASLPGVKKALGKYGPADVEDTTGSGATDSKDDDDIDLFGSDDEEESEEAKRLREERLAQYESKKAKKPALVAKSSILLDVKPWDDETDMAKLEECVRSIQADGLVWGSSKLVPVGYGIKKLQIQCVVEDDKVGTDMLEEQITAFEDYVQSMDVAAFNKI	1.59	0.2013
sp¦P37837¦TALDO_HUMAN (protein, UniProt P37837 1-337, looked up) Transaldolase: MSSSPVKRQRMESALDQLKQFTTVVADTGDFHAIDEYKPQDATTNPSLILAAAQMPAYQELVEEAIAYGRKLGGSQEDQIKNAIDKLFVLFGAEILKKIPGRVSTEVDARLSFDKDAMVARARRLIELYKEAGISKDRILIKLSSTWEGIQAGKELEEQHGIHCNMTLLFSFAQAVACAEAGVTLISPFVGRILDWHVANTDKKSYEPLEDPGVKSVTKIYNYYKKFSYKTIVMGASFRNTGEIKALAGCDFLTISPKLLGELLQDNAKLVPVLSAKAAQASDLEKIHLDEKSFRWLHNEDQMAVEKLSDGIRKFAADAVKLERMLTERMFNAENGK	1.543	0.1885
sp¦P30533¦AMRP_HUMAN (protein, UniProt P30533 35-357, looked up) Alpha-2-macroglobulin …: YSREKNQPKPSPKRESGEEFRMEKLNQLWEKAQRLHLPPVRLAELHADLKIQERDELAWKKLKLDGLDEDGEKEARLIRNLNVILAKYGLDGKKDARQVTSNSLSGTQEDGLDDPRLEKLWHKAKTSGKFSGEELDKLWREFLHHKEKVHEYNVLLETLSRTEEIHENVISPSDLSDIKGSVLHSRHTELKEKLRSINQGLDRLRRVSHQGYSTEAEFEEPRVIDLWDLAQSANLTDKELEAFREELKHFEAKIEKHNHYQKQLEIAHEKLRHAESVGDGERVSRSREKHALLEGRTKELGYTVKKHLQDLSGRISRARHNEL	1.604	0.2053
sp¦P21953¦ODBB_HUMAN (protein, UniProt P21953 51-392, looked up) 2-oxoisovalerate …: VAHFTFQPDPEPREYGQTQKMNLFQSVTSALDNSLAKDPTAVIFGEDVAFGGVFRCTVGLRDKYGKDRVFNTPLCEQGIVGFGIGIAVTGATAIAEIQFADYIFPAFDQIVNEAAKYRYRSGDLFNCGSLTIRSPWGCVGHGALYHSQSPEAFFAHCPGIKVVIPRSPFQAKGLLLSCIEDKNPCIFFEPKILYRAAAEEVPIEPYNIPLSQAEVIQEGSDVTLVAWGTQVHVIREVASMAKEKLGVSCEVIDLRTIIPWDVDTICKSVIKTGRLLISHEAPLTGGFASEISSTVQEECFLNLEAPISRVCGYDTPFPHIFEPFYIPDKWKCYDALRKMINY	1.558	0.1926
Eosinophil cationic protein (protein, UniProt P12724 28-160, looked up) Eosinophil cationic protein: RPPQFTRAQWFAIQHISLNPPRCTIAMRAINNYRWRCKNQNTFLRTTFANVVNVCGNQSIRCPHNRTLNNCHRSRFRVPLLHCDLINPGAQNISNCTYADRPGRRFYVVACDNRDPRDSPRYPVVPVHLDTTI	5.495	0.7399
sp¦Q9UK45¦LSM7_HUMAN (protein, UniProt Q9UK45 2-103, looked up) U6 snRNA-associated Sm-like …: ADKEKKKKESILDLSKYIDKTIRVKFQGGREASGILKGFDPLLNLVLDGTIEYMRDPDDQYKLTEDTRQLGLVVCRGTSVVLICPQDGMEAIPNPFIQQQDA	1.561	0.1935
sp¦P40121¦CAPG_HUMAN (protein, UniProt P40121 1-348, looked up) Macrophage-capping protein: MYTAIPQSGSPFPGSVQDPGLHVWRVEKLKPVPVAQENQGVFFSGDSYLVLHNGPEEVSHLHLWIGQQSSRDEQGACAVLAVHLNTLLGERPVQHREVQGNESDLFMSYFPRGLKYQEGGVESAFHKTSTGAPAAIKKLYQVKGKKNIRATERALNWDSFNTGDCFILDLGQNIFAWCGGKSNILERNKARDLALAIRDSERQGKAQVEIVTDGEEPAEMIQVLGPKPALKEGNPEEDLTADKANAQAAALYKVSDATGQMNLTKVADSSPFALELLISDDCFVLDNGLCGKIYIWKGRKANEKERQAALQVAEGFISRMQYAPNTQVEILPQGHESPIFKQFFKDWK	1.617	0.2088

Source: paper PMC8298264, “Function of cofactor Akirin2 in the regulation of gene expression in model human neutrophil-like HL60 cells” (Bioscience Reports, 2021)
